According to PMC7674511, “The Chaperone BAG6 Regulates Cellular Homeostasis between Autophagy and Apoptosis by Holding LC3B” (iScience, 2020):
No end group written: not given here.

Target: LC3B-I (UniProt Q9GZQ8 1-120)
Assay: fluorescence polarisation; fluorescence anisotropy; peptide at 1 μM, LC3B-I or Pro-LC3B added from 0 to 50 μM; Kd by nonlinear curve fitting; three independent experiments
Settings: both partners purified

Kd: 22.2 µM
B1: BAG6 LIR1 peptide (residues 124-143) (peptide)
peptide: VHDRNANSYVMVGTFNLPSD
modifications: also: FITC label, position not given here
notes: BAG6, 20-aa peptide encompassing the LIR1 motif (132-135 YVMV), residues 124-143; it has the same name there; also called wild-type BAG6 LIR-1 peptide; source: synthetic peptide
